Measurements as given in patent publication US7927849B2, “Laccase enzyme and use thereof” (AB Enzymes OY, priority 2004, dated 2011).

Columns and labels:
[1] = Isoelectric focusing (pI); format: physicochemical; settings: pH range 3-9, ABTS staining
Experimental: Molecular weight of the Thielavia arenaria laccase (wt TaLcc1) was determined on SDS-PAGE according to Laemmli (1970). The gels used in the SDS-PAGE analysis were ready-made 12% Tris HCl gels (BioRad). Protein bands were visualized by staining with Coomassie Brilliant Blue (R 350; Pharmacia) and compared with molecular weight markers (Prestained Protein Marker Broad Range #7708S; New England BioLabs, Beverly, Mass.). The molecular weight of the Thielavia areanaria laccase was approximately 80 kDa. The isoelectric point of the laccase was determined with isoelectric focusing within the pH range of 3-9 (Pharmalyte IEF, Pharmacia) on a LKB 2117 Multiphor II Electrophoresis System (LKB Pharmacia, Bromma, Sweden) according to the manufacturer's instructions.
(§1) The purified recombinant Thielavia arenaria TaLcc1 was characterized in terms of pH optimum, thermal stability, and pI as described in Example 2. The molecular weight was determined by MALDI-TOF mass spectrometry on a Ultraflex™ time-of-flight instrument (BrukerDaltonics, Germany) as previously described (Palonen et al., 2003). The redox potential of TaLcc1 was also determined with a combined Pt-AgCl/KCl microelectrode at pH 5.0 according to Sigoillot et al (2004)

[2] = Specific activity on syringaldazine; format: biochemical; settings: 25 mM MES buffer, pH 5.5
Experimental: (§2) Specific activities of the purified Thielavia laccase were determined towards different laccase substrates.

[3] = Denim bleaching, effect of enzyme dosage (Wascator); settings: 60° C., pH 6
Experimental: Lee Cooper Jeans previously washed with ECOSTONE® cellulases (Example 7) were treated with a TaLcc1 laccase product from Trichoderma strain RF5598 and DeniLite Base from Novozymes using different laccase dosages. The laccase treatments were performed with Electrolux's Wascator FOM 71 CLS washer extractor under optimal conditions for each enzyme, shown in Table 13. Methyl syringate (Example 7) was used as a mediator. Laccase was inactivated after draining by raising the pH above 11 by NaOH (10 min, 60° C.) and rinsing 3 times. The fabrics were dried in a tumbler.
The bleaching effect was evaluated by measuring the colour after laccase treatment as reflectance values (as in Example 7) and comparing the values to previously measured values after cellulase treatment.

[4] = Redox potential, Pt-AgCl/KCl microelectrode; format: physicochemical; settings: pH 5.0
Experimental: as §1

[5] = Denim bleaching at different pH-values (Launder Ometer); settings: 50° C.; for Increase of L* / L* after laccase treatment / b* after laccase treatment: 200 nkat/g, 30 min
Experimental: Lee Cooper jeans (Hamilton, 111-1060-55522-65, MASI Company Oy, Finland, former name M.A.S.I. jeans Oy) that were made of ring spun yarn in warp and open-end yarn in weft and were previously desized and treated with neutral ECOSTONE® cellulase were used as a test material. Laccase treatments were performed in LP-2 Launder Ometer as follows. About 10 g of denim swatches (15×14 cm) were loaded into 1.2 liter containers containing 200 ml Mc Ilvaine's citrate phosphate buffer pH 5, 6 or 7 and the containers were temperated. Enzyme with or without the mediator (methyl syringate, DeniLite II Assist, Novozymes) was added. Enzyme was dosed 200 nkat/g and the mediator 10 mg/g on the weight of fabric. […] The Launder Ometer was run at 50° C. for 30 min and after that the temperature in Launder was raised to 80° C. for 10 min. The swatches were rinsed carefully with warm water, dried half-dry in a tumbler and after that air dried.
The bleaching effect was evaluated by measuring the colour as reflectance values with the Minolta Spectrophotometer CM 1000 (Minolta Co.) using L*a*b* color space coordinates (illuminant D65/2°). The colour from both sides of the swatches was measured before and after the laccase treatment. Each measurement was the average of several, at least ten, measurements.

Specific activity on DMP = format: biochemical; settings: 25 mM MES buffer, pH 5.5
Experimental: as §2

[6] = Stain removal with laccases, grass; settings: 60 min, pH 6
Experimental: The TaLcc1 (RF5598) and Denilite II Base laccase preparations were tested for their ability to remove stains. The following artificially soiled test cloths were used: grass soiling (Art. 164, EMPA Testmaterialen, Germany), tea soiling (Art. 167, EMPA Testmaterialen, Germany). The fabric was cut in 5.8×5.8 cm swatches. Laccase treatments were performed in LP-2 Launder Ometer as follows. About 5 g of soiled fabrics were loaded into 1.2 liter containers containing 150 ml Mc Ilvaine's citrate phosphate buffer pH 6 and the containers were temperated. Enzymes with or without the mediator (methyl syringate, DeniLite II Assist, Novozymes) were dosed as laccase activity units (Example 7). Enzyme dosage was 200 nkat/g and mediator dosage 10 mg/g of the weight of fabric, except at 40° C. also dosages of 20 nkat/g and 2 mg/g were used. The Launder Ometer was run at 40, 50 or 60° C. and pH 6 for 60 min. After that the swatches were carefully rinsed under running water and in shake flasks containing warm water and dried in the air.
The stain removal effect was evaluated by measuring the colour as reflectance values using L*a*b* color space coordinates (Example 7). The colour of the swatches was measured before and after the laccase treatment.

[7] = 20 nkat/g, mediator 1 mg/g, 30 min
[8] = 20 nkat/g, mediator 1 mg/g, 60 min
[9] = 100 nkat/g, mediator 5 mg/g, 30 min
[10] = 100 nkat/g, mediator 5 mg/g, 60 min
[11] = 20 nkat/g, mediator 2 mg/g, 40° C.
[12] = 200 nkat/g, mediator 0 mg/g, 40° C.
[13] = 200 nkat/g, mediator 0 mg/g, 60° C.
[14] = 200 nkat/g, mediator 10 mg/g, 40° C.
[15] = 200 nkat/g, mediator 10 mg/g, 50° C.
[16] = 200 nkat/g, mediator 10 mg/g, 60° C.

B1: TaLcc1: Recombinant Thielavia arenaria ALKO4197 laccase 1 (SEQ ID NO: 12) produced in Trichoderma reesei strains RF5597/RF5598 (protein)
chain: MKSWAAAVALMVGILSPHAAAAPPANPVQRDMLQVLEARQSGPTCNTPSNRACWTNGFDINTDYEVSTPNTGRTVAYQLTLTEKENWIGPDGVLKNVVMLVNDKIIGPTIRANWGDNIEVTVINNLKTNGTSMHWHGLRQLGNVFNDGANGVTECPIPPKGGRKTYKFRATQYGTSWYHSHFSAQYGNGVVGTIQIDGPASLPYDIDLGVFPLMDYYYRSADELVHFTQSNGAPPSDNVLFNGTARHPETGAGQWYNVTLTPGKRHRLRIINTSTDNHFQVSLVGHNMTVIATDMVPVNAFTVSSLFLAVGQRYDVTIDANSPVGNYWFNVTFGDGLCGSSNNKFPAAIFRYQGAPATLPTDQGLPVPNHMCLDNLNLTPVVTRSAPVNNFVKRPSNTLGVTLDIGGTPLFVWKVNGSAINVDWGKPILDYVMSGNTSYPVSDNIVQVDAVDQWTYWLIENDPTNPIVSLPHPMHLHGHDFLVLGRSPDELPSAGVRHIFDPAKDLPRLKGNNPVRRDVTMLPAGGWLLLAFKTDNPGAWLFHCHIAWHVSGGLSVDFLERPNDLRTQLNSNAKRADRDDFNRVCREWNAYWPTNPFPKIDSGLRHRFVEESEWMVR
modifications: Thielavia arenaria ALKO4197; (1)..(617) Deduced amino acid sequence of Thielavia arenaria ALKO4197 laccase 1 (Ta Lcc1)
pI [1]: 5.5-6.9
Specific activity on syringaldazine [2]: 340 nkat/mg
Increase of L* [3, 7]: 12.24
L* after laccase treatment [3, 7]: 40.61
b* after laccase treatment [3, 7]: −16.16
Increase of L* [3, 8]: 15.09
L* after laccase treatment [3, 8]: 42.72
b* after laccase treatment [3, 8]: −15.61
Increase of L* [3, 9]: 21.88
L* after laccase treatment [3, 9]: 49.84
b* after laccase treatment [3, 9]: −13.75
Increase of L* [3, 10]: 25.68
L* after laccase treatment [3, 10]: 53.46
b* after laccase treatment [3, 10]: −11.64
E^0 [4]: 560 mV
Increase of L* ([5]; mediator 0 mg/g, pH 5): 0.14
L* after laccase treatment ([5]; mediator 0 mg/g, pH 5): 28.22
b* after laccase treatment ([5]; mediator 0 mg/g, pH 5): −18.35
Increase of L* ([5]; mediator 0 mg/g, pH 6): 0.82
L* after laccase treatment ([5]; mediator 0 mg/g, pH 6): 29.58
b* after laccase treatment ([5]; mediator 0 mg/g, pH 6): −18.38
Increase of L* ([5]; mediator 0 mg/g, pH 7): 0.37
L* after laccase treatment ([5]; mediator 0 mg/g, pH 7): 27.80
b* after laccase treatment ([5]; mediator 0 mg/g, pH 7): −18.50
Increase of L* ([5]; mediator 10 mg/g, pH 5): 13.52
L* after laccase treatment ([5]; mediator 10 mg/g, pH 5): 42.04
b* after laccase treatment ([5]; mediator 10 mg/g, pH 5): −14.78
Increase of L* ([5]; mediator 10 mg/g, pH 6): 21.19
L* after laccase treatment ([5]; mediator 10 mg/g, pH 6): 48.97
b* after laccase treatment ([5]; mediator 10 mg/g, pH 6): −12.36
Increase of L* ([5]; mediator 10 mg/g, pH 7): 16.92
L* after laccase treatment ([5]; mediator 10 mg/g, pH 7): 44.71
b* after laccase treatment ([5]; mediator 10 mg/g, pH 7): −14.43
optimum pH in denim bleaching ([5]; pH 5 to 7 tested): 6
Specific activity on DMP (Specific activity on DMP): 285 nkat/mg
Grass L* [6, 11]: 80.16
Grass a* [6, 11]: −0.73
Grass b* [6, 11]: 16.20
Grass L* [6, 12]: 80.25
Grass a* [6, 12]: −4.22
Grass b* [6, 12]: 17.41
Grass L* [6, 13]: 79.38
Grass a* [6, 13]: −4.19
Grass b* [6, 13]: 17.77
Grass L* [6, 14]: 80.34
Grass a* [6, 14]: 0.47
Grass b* [6, 14]: 16.51
Grass L* [6, 15]: 80.60
Grass a* [6, 15]: −0.18
Grass b* [6, 15]: 17.65
Grass L* [6, 16]: 80.6
Grass a* [6, 16]: 0.02
Grass b* [6, 16]: 18.71
